By koff is commonly meant the first-order rate constant of dissociation. Lower therefore signals a long-lived complex.

One test has as its target H3K9me3 mononucleosome. In words: native gel or EMSA; varying concentrations of Chp2 with 50 nM mononucleosomes; 20 mM HEPES pH 7.5, 4 mM Tris, 80 mM KCl, 0.1% Igepal CA-630, 0.2 mM EDTA, 2 mM DTT, 10% glycerol; 4°C, 30 min; unbound nucleosome band quantified; apparent affinity (K1/2). (In EMSA bound probe runs differently from free probe, usually more slowly.)
Test [1] concerns the target H3K9 methylated (H3K9me) histones in chromatin (S. pombe (endogenous in S. pombe cells)). In words: live-cell single-molecule tracking (NOBIAS mobility states, Bayesian Synthetic Likelihood rate inference); PAmCherry-tagged protein photoactivated and tracked in the nucleus of living S. pombe, 40-ms frames, room temperature; Chp2 from the nmt81 promoter, Epe1 from its own or the nmt1 promoter; WT cells, with clr4Δ and swi6Δ cells as comparison.

The target is the same in test [2]. In words: live-cell single-molecule tracking (NOBIAS mobility states, Bayesian Synthetic Likelihood rate inference); as a2, but PAmCherry-Chp2 expressed from the nmt41 promoter (5x higher level).
The target is the same in test [3]. The test is described as follows: live-cell single-molecule time-lapse imaging; residence times of stationary PAmCherry-tagged molecules in living WT S. pombe; 200-ms integration time with different dark delay times; kdiss from a linear fit that separates photobleaching.
For test [4] the target is unchanged. In words: live-cell single-molecule time-lapse imaging; as a4, but PAmCherry-Chp2-low in swi6Δ cells.
Test [5] has the same target. The test is described as follows: live-cell single-molecule time-lapse imaging; residence times of stationary PAmCherry-tagged molecules in living WT S. pombe; 200-ms integration time with different dark delay times; kdiss from a linear fit that separates photobleaching. The source holds these as a separate data set.

Where only a bound is given, the exact number is not on record here.

PAmCherry-Swi6, sequence (P40381 whole entry): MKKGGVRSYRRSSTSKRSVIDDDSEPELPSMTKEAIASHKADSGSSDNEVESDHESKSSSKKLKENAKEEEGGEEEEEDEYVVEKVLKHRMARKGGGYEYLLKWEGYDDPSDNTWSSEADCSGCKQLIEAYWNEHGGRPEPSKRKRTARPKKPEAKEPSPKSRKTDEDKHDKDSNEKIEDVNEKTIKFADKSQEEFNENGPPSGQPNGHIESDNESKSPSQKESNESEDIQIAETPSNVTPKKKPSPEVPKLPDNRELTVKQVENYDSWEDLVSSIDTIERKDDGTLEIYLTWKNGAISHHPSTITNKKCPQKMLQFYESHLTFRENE
PAmCherry-Chp2, sequence (O42934 whole entry): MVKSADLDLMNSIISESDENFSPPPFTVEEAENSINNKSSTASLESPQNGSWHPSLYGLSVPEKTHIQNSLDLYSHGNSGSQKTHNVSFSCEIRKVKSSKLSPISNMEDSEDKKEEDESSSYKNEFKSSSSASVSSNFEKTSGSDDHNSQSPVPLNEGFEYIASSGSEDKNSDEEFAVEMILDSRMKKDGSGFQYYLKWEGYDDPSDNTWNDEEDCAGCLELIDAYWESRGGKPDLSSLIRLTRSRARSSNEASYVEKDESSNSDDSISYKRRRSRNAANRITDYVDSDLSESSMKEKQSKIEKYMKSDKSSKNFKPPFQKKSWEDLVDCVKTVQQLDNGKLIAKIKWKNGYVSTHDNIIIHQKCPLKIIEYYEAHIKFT
Chp2-WT (recombinant), sequence (O42934 whole entry): as above

For “Chp2-WT (recombinant) (from UniProt O42934 1-380) (natural protein)”, the specificity for H3K9me over H3K9me0 nucleosomes in the test with H3K9me3 mononucleosome is 2 fold.
On to “PAmCherry-Chp2 (from UniProt O42934 1-380) (natural protein)”, for which the koff in test [1] turned out to be 0.479 s⁻¹; in test [3], 0.26 s⁻¹; in test [4], 0.269 s⁻¹. For the same substance, the weight fraction of the low mobility (H3K9me-bound) state is over 92% in test [1] and over 90% in test [2]. Further, the average dwell time in test [3] amounted to 3.85 s; in test [4], 3.72 s.
In the case of “PAmCherry-Chp2 W199A (from UniProt O42934 1-380) (natural protein)”, in test [1], the weight fraction of the low mobility (H3K9me-bound) state came out at 10%.
Turning to “PAmCherry-Swi6 (from UniProt P40381 1-328) (natural protein)”, the average dwell time in test [3] came out at 2.2 s; in test [5] it was 2.22 s. In test [3], the koff amounted to 0.454 s⁻¹.

(Values after publication PMC11472046.)
